From patent US11371056B2, “HPPD variants and methods of use” (BASF Agricultural Solutions Seed US LLC, priority 2017, dated 2022) come the findings set out here.

The labels stand for the following.
B1: SEQ ID NO:61 (protein)
chain: MADLYENPMGLMGFEFIEFASPTPGTLEPIFEIMGFTKVATHRSKNVHLYRQGEINLILNNEPNSIASYFAAEHGPSVCGMAFRVKDSQKAYNRALELGAQPIHIDTGPMELNLPAIKGIGGAPLYLIDRFGEGSSIYDIDFVYLEGVERNPVGAGLKVIDHLTHNVYRGRMVYWANFYEKLFNFREARYFDIKGEYTGLTSKAMSAPDGMIKIPLNEESSKGAGQIEEFLMQFNGEGIQHVAFLTDDLVKTWDALKKIGMRFLTAPGDEYYEMLEGRLPDHGEPVDQLQARGILLDGSSVEGDKRLLLQIFSEQLMGPVFFEFIQRKGDDGFGPDSFKVLFEQMERDQVRRGVLTAD
modifications: mutant HPPD polypeptide
B2: SEQ ID NO:17 (protein)
chain: B1 chain with K213R, L264M, Q315T, Q344S
modifications: mutant HPPD polypeptide
B3: SEQ ID NO:21 (protein)
chain: B1 chain with K213R, L264M, Q315T
modifications: mutant HPPD polypeptide
B4: SEQ ID NO:4 (protein)
chain: B1 chain with K213R, L264M, Q344S, M345I
modifications: mutant HPPD polypeptide
B5: SEQ ID NO:20 (protein)
chain: B1 chain with K213R, L264M, Q315R
modifications: mutant HPPD polypeptide
B6: SEQ ID NO:22 (protein)
chain: B1 chain with K213R, L264M, Q315K, D336H, Q344S, M345I
modifications: mutant HPPD polypeptide
B7: SEQ ID NO:19 (protein)
chain: B1 chain with K213R, L264M
modifications: mutant HPPD polypeptide
B8: SEQ ID NO:11 (protein)
chain: B1 chain with K213R, L264M, M345I
modifications: mutant HPPD polypeptide
B9: SEQ ID NO:8 (protein)
chain: B1 chain with K213R, Q344S, M345I
modifications: mutant HPPD polypeptide
B10: SEQ ID NO:13 (protein)
chain: B1 chain with K213R, L264M, Q315T, M345I
modifications: mutant HPPD polypeptide
B11: SEQ ID NO:7 (protein)
chain: B1 chain with K213R, Q315K, Q344S, M345I
modifications: mutant HPPD polypeptide
B12: SEQ ID NO:9 (protein)
chain: B1 chain with K213R, Q315T, Q344S, M345I
modifications: mutant HPPD polypeptide
B13: SEQ ID NO:12 (protein)
chain: B1 chain with K213R, L264M, Q315R, M345I
modifications: mutant HPPD polypeptide
B14: SEQ ID NO:14 (protein)
chain: B1 chain with K213R, L264M, Q315K, Q344S
modifications: mutant HPPD polypeptide
B15: SEQ ID NO:6 (protein)
chain: B1 chain with K213R, L264M, Q315T, Q344S, M345I
modifications: mutant HPPD polypeptide
B16: SEQ ID NO:16 (protein)
chain: B1 chain with K213R, L264M, Q315R, Q344S
modifications: mutant HPPD polypeptide
B17: SEQ ID NO:18 (protein)
chain: B1 chain with K213R, L264M, Q315K
modifications: mutant HPPD polypeptide
B18: SEQ ID NO:15 (protein)
chain: B1 chain with K213R, L264M, Q344S
modifications: mutant HPPD polypeptide
B19: SEQ ID NO:5 (protein)
chain: B1 chain with K213R, L264M, Q315R, Q344S, M345I
modifications: mutant HPPD polypeptide
B20: SEQ ID NO:23 (protein)
chain: B1 chain with K213R, L264M, D336H, Q344S, M345I
modifications: mutant HPPD polypeptide
B21: SEQ ID NO:3 (protein)
chain: B1 chain with K213R, L264M, Q315K, Q344S, M345I
modifications: mutant HPPD polypeptide
B22: SEQ ID NO:10 (protein)
chain: B1 chain with K213R, L264M, Q315K, M345I
modifications: mutant HPPD polypeptide

Substitutions are numbered along the chain they refer to.

The subject of one data set is Pseudomonas fluorescens HPPD polypeptide (wild-type and mutants). The data set is described as follows: Coupled HPPD activity assay: turnover and residual turnover in crude HPPD polypeptide extracts with and without Cmpd. 1. The data set is classed as biochemical. Conditions: 100 μM Cmpd. 1, Table 3. As to the method: For the generation of crude HPPD polypeptide extract in micro titer plates (MTP) for the determination of residual activity in inhibition assays, cells were grown in 40 or 150 μl LB medium containing 1% Glucose (Merck, Darmstadt, Germany) and 100 μg/ml ampicillin in a standard 96 well plate (Thermo Fisher Scientific, Waltham, USA) incubated for about 18 h in a humidity incubator at 37° C. 30 μl of this starter culture were added to 600 μl LB medium containing 100 μg/ml ampicillin and 150 mM Hepes (Merck, Darmstadt, Germany) as inoculum for the expression culture in 96 well plates (2 ml deep wells; HJ Bioanalytik, Erkelenz, Germany). The plates were sealed by an aluminium foil, and cells were incubated for 5 h at 37° C. on a plate shaker at 750 rpm. The expression was induced by addition of IPTG in a final concentration of 1 mM followed by further sealed incubation for about 18 h at 30° C. on a plate shaker at 750 rpm.
Cells were harvested by centrifugation at 4° C., 2500 g for 15 min discarding the supernatant. Cell pellets were stored at −80° C. and lysed in 250 μl 1× BugBuster® (Merck, Darmstadt, Germany) in 140 mM Tris (pH 7.8), with 1:25000 diluted BNase® (Qiagen, Hilden, Germany) by incubation of the resuspended cells for 30 min at 4° C. and 1000 rpm. Lysates were clarified by centrifugation for 15 min at 4° C., 2500 g, and 150 μl supernatant were transferred in standard 96 well plate (Thermo Fisher Scientific, Waltham, USA) for subsequent testing in quadruplets.
The activity of HPPD polypeptides was determined in absence or presence of HPPD inhibitors using the coupled HPPD activity assay (FIG. 1).
For the determination of the residual activity, the apparent kinetic constant (kapp) of the determined substrate conversion was measured as kinetic changes in absorbance (OD) at 320 nm in a coupled assay, in that homogentisate (HGA) formed by HPPD from HPP is directly converted into the well absorbing molecule maleylacetoacetate (MAA) by a second enzyme homogentisate dioxygenase (HGD), applied in excess uniformly in all assays (see FIG. 1). The measurements were performed in 384 micro titer plates (Greiner Bio-One GmbH, Frickenhausen, Germany) by plate readers (Tecan infinite M1000 or M1000PRO, Tecan, Männedorf, Switzerland). The kcat/kM ratio of an enzymatic activity is proportional to the apparent kinetic constant kapp and is proportional to kcat/kM*[E] ([E]=enzyme concentration). […] As both kapp measurements in the presence and absence of inhibitor were performed by use of the identical enzyme sample, crude or purified, and thereby at the same enzyme concentration, the enzyme concentration eliminates from the calculation of residual activity and the ratio of both kapp directly indicates the change of kM due to the inhibition.
The assay solution used for determination of residual activities in raw HPPD polypeptide samples was composed by 200 mM sodium phosphate (Merck, Darmstadt, Germany, pH 7.0), 5 mM MgCl2 (Merck, Darmstadt, Germany), 20 mM ascorbate (Sigma-Aldrich, St. Louis, USA), 1 mM DTT (Sigma-Aldrich, St. Louis, USA), 0.1% Pluronic F-68 (Sigma-Aldrich, St. Louis, USA), 40 μM FeSO4 (Sigma-Aldrich, St. […] Louis, USA) and equilibrated for 20 min on ice.
On to B1, for which the “turnover and residual turnover, comparison in words” value was “decreases the turnover and residual turnover”.

The data set is the same for the next values; noted with them: 100 μM Cmpd. 1, normalised to turnover without inhibitor.
On to B1, for which the “Residual turnover [%]” value amounted to 56%.

B2: the “Residual turnover [%]” value is 41%.

Regarding B3, the “Residual turnover [%]” value was found to be 38%.

As to B4, the “Residual turnover [%]” value came to 50%.

With B5, the “Residual turnover [%]” value was found to be 49%.

Turning to B6, the “Residual turnover [%]” value is on record as 42%.

Regarding B7, the “Residual turnover [%]” value turned out to be 40%.

For B8, the “Residual turnover [%]” value worked out at 46%.

On to B9, for which the “Residual turnover [%]” value is listed as 66%.

For B10, the “Residual turnover [%]” value turned out to be 38%.

For B11, the “Residual turnover [%]” value is 59%.

B12: the “Residual turnover [%]” value is reported as 65%.

On to B13, for which the “Residual turnover [%]” value is listed as 40%.

On to B14, for which the “Residual turnover [%]” value was found to be 40%.

As for B15, the “Residual turnover [%]” value is listed as 33%.

Consider B16, for which the “Residual turnover [%]” value is reported as 46%.

On to B17, for which the “Residual turnover [%]” value is 41%.

For B18, the “Residual turnover [%]” value is reported as 39%.

With B19, the “Residual turnover [%]” value is 44%.

As to B20, the “Residual turnover [%]” value is on record as 48%.

The same data set, now with this note: absence of Cmpd. 1; changes in absorbance (OD) at 320 nm in the coupled assay, 30 min.
B1 registered a Turnover of 0.206.

With B2, the Turnover came out at 0.184.

In turn, B3 returned a Turnover of 0.214.

B4 registered a Turnover of 0.121.

B5 displayed a Turnover of 0.166.

The molecule B6 yielded a Turnover of 0.259.

Take B7: the Turnover amounted to 0.218.

On to B8, for which the Turnover came to 0.183.

Take B9: the Turnover is recorded as 0.124.

B10 displayed a Turnover of 0.168.

B11 registered a Turnover of 0.126.

Turning to B12, the Turnover is 0.109.

B13: the Turnover is given as 0.189.

Consider B14, for which the Turnover turned out to be 0.18.

For B15, the Turnover is 0.159.

As for B16, the Turnover is 0.181.

B21 yielded a Turnover of 0.013.

As to B22, the Turnover came out at 0.018.

B17 gave a Turnover of 0.221.

B18: the Turnover is reported as 0.161.

B19 returned a Turnover of 0.162.

As for B20, the Turnover stood at 0.272.

The same data set, now with this note: presence of 100 μM Cmpd. 1; changes in absorbance (OD) at 320 nm in the coupled assay, 30 min.
B1: the Residual turnover came to 0.116.

As for B2, the Residual turnover was found to be 0.075.

Regarding B3, the Residual turnover is 0.082.

Regarding B4, the Residual turnover came to 0.06.

For the molecule B5, the Residual turnover is recorded as 0.082.

B7: the Residual turnover came to 0.087.

For the molecule B8, the Residual turnover was 0.085.

Take B9: the Residual turnover came out at 0.082.

Consider B10, for which the Residual turnover amounted to 0.064.

Take B11: the Residual turnover turned out to be 0.074.

With B12, the Residual turnover turned out to be 0.071.

Take B13: the Residual turnover stood at 0.076.

Consider B14, for which the Residual turnover was found to be 0.072.

With B15, the Residual turnover is recorded as 0.052.

For the molecule B16, the Residual turnover was 0.083.

As for B21, the Residual turnover is 0.012.

As for B22, the Residual turnover was 0.021.

Consider B17, for which the Residual turnover was 0.091.

In the case of B18, the Residual turnover stood at 0.062.

For the molecule B19, the Residual turnover came to 0.071.

Take B20: the Residual turnover turned out to be 0.131.
